Laboratory results reported in patent US20140079711A1.

Key:
[1] = target: CD147 N-domain (Asp19 to Asn117 of SEQ ID NO: 1) (human); test: SPR (Biacore 3000), mAb captured by anti-mouse Fc, N-domain fragment injected
[2] = target: CD147 Asp19-Asn117-Fc fusion protein (human) (UniProt P35613); test: competition ELISA on coated CD147 Asp19-Asn117-Fc; competitor 2H3; 5F6 against labeled 2H3
[3] = target: CD147 Asp19-Asn117-Fc fusion protein (human) (UniProt P35613); test: competition ELISA on coated CD147 Asp19-Asn117-Fc; competitor 2H3; 2C8 as competitor against 2H3 on coated CD147 Asp19-Asn117-Fc
[4] = target: CD147 Asp19-Asn117-Fc fusion protein (human) (UniProt P35613); test: competition ELISA on coated CD147 Asp19-Asn117-Fc; competitor 5F6; 2C8 as competitor against 5F6 on coated CD147 Asp19-Asn117-Fc

Kd [1] [nM] | IC50 [2] [nM] | IC50 [3] [nM] | IC50 [4] [nM] | Binder
0.46 | 1000 |  |  | 5F6(mIgG1) (antibody, V domains shown) VH: EMKLEESGGGLVQPGGSMKLSCVASGFTFSNYWMNWVRQSPEKGLEWVAQIRLKSYNYATHYAESVKGRFTISRDDSKSSVYLQMNNLRAEDTGIYYCTPDGSDYWGQGTTLTVSS VL: SIVMTQTPKFLLVSAGDRVTITCKASQSVSNDVAWYQQKPGQSPKLLIYYASNRYTGVPDRFTGSGYGTDFTFTISTVQAEDLAVYFCQQDYSSPYTFGGGTKLEIK
0.43 |  | 30 | 30 | 2C8(mIgG1) (antibody, V domains shown) VH: EMKLEESGGGLVQPGGSMKLSCVASGFTFSNYRMNWVRQSPEKGLEWVAQIRLKSYNYATHYAESVKGRFTISRDDSKSSVYLQMNNLRAEDTGIYYCTPDGSDYWGQGTTLTVSS VL: DILMTQSPSSMSVSLGDTVSITCHASQGISSSIGWLQQKPGKSFKGLIYHGTNLEDGVPSRFTGSGSGADYSLTISSLESEDFADYYCVQYAQFPYTFGGGTKLEIK
